Data published in PMC5789952 (Proceedings of the National Academy of Sciences of the …, 2017).
One block for each binder: values may come before it.

Experiments:
STAT2_(133–679) = biological target: T1, STAT2_(133–679) (mouse, UniProt Q9WVL2 133-679); test: SEC-MALS
T1 sequence (looked up): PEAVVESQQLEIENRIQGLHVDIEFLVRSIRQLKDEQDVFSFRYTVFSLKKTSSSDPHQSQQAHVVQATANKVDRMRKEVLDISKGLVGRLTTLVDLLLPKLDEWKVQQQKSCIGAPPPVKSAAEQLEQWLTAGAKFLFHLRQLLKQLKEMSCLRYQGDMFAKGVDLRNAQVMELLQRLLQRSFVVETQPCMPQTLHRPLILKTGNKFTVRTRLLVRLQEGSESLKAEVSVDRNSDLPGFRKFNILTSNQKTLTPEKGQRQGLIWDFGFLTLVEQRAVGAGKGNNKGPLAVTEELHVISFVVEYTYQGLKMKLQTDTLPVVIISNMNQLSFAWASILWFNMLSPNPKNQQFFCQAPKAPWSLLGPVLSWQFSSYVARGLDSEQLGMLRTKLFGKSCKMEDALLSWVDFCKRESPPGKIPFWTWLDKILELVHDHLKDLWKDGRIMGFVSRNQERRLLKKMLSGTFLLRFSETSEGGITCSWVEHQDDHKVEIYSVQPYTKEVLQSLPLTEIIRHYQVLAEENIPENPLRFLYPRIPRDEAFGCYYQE

IRF9-DBD = biological target: T2, IRF9-DBD (Mus musculus, UniProt Q61179 1-116); test: EMSA
T2 sequence: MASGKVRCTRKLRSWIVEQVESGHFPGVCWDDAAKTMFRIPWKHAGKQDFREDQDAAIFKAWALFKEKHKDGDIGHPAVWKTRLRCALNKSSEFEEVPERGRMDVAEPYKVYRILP

[1] = biological target: T3, STAT2 (133–748) of the purified STAT1–STAT2 heterodimer (mouse, UniProt Q9WVL2 133-748); test: tandem affinity co-purification
T3 sequence (looked up): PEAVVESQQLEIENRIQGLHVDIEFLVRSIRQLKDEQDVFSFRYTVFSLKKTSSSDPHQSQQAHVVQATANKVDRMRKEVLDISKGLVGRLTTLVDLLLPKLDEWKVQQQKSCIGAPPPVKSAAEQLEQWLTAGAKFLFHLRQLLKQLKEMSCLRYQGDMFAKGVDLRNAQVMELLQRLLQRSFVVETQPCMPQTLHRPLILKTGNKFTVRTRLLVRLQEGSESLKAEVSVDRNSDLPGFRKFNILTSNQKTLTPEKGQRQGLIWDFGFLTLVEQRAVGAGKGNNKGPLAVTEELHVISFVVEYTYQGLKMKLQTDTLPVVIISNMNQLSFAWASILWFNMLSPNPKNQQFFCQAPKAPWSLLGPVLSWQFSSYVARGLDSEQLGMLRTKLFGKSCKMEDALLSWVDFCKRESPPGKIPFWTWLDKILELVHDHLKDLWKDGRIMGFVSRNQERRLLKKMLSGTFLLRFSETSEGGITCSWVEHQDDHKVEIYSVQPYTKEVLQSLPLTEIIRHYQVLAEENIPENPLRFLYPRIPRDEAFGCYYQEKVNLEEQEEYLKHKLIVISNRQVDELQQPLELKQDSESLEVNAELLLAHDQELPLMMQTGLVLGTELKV

IRF9–IAD_(182–385) = biological target: T4, IRF9–IAD_(182–385) (mouse, UniProt Q61179 182-385); test: SEC
T4 sequence (looked up): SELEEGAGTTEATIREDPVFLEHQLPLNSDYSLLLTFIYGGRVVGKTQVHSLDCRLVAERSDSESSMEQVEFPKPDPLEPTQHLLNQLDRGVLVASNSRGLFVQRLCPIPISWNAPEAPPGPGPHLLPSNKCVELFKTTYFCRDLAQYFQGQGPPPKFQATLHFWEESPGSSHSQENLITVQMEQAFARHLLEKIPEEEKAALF

stoichiometry N (STAT2_(133–679)): 1
B1: IRF9_(182–399) (domain or fragment, mouse, UniProt Q61179 182-399, looked up)
chain: SELEEGAGTTEATIREDPVFLEHQLPLNSDYSLLLTFIYGGRVVGKTQVHSLDCRLVAERSDSESSMEQVEFPKPDPLEPTQHLLNQLDRGVLVASNSRGLFVQRLCPIPISWNAPEAPPGPGPHLLPSNKCVELFKTTYFCRDLAQYFQGQGPPPKFQATLHFWEESPGSSHSQENLITVQMEQAFARHLLEKIPEEEKAALFLLQHTEQSPSALGH

B2: ADAR ISRE 29 bp (dsDNA)
DNA 1: TAAGCCTTTTCAAGGAAACGAAAGTGAAC
DNA 2: AGTTCACTTTCGTTTCCTTGAAAAGGCTT
binding result (IRF9-DBD): binds

binding result [1]: binds
B3: STAT1 (136–713) of the purified STAT1–STAT2 heterodimer (domain or fragment, mouse, UniProt P42225 136-713, looked up)
chain: LDKQKELDSKVRNVKDQVMCIEQEIKTLEELQDEYDFKCKTSQNREGEANGVAKSDQKQEQLLLHKMFLMLDNKRKEIIHKIRELLNSIELTQNTLINDELVEWKRRQQSACIGGPPNACLDQLQTWFTIVAETLQQIRQQLKKLEELEQKFTYEPDPITKNKQVLSDRTFLLFQQLIQSSFVVERQPCMPTHPQRPLVLKTGVQFTVKSRLLVKLQESNLLTKVKCHFDKDVNEKNTVKGFRKFNILGTHTKVMNMEESTNGSLAAELRHLQLKEQKNAGNRTNEGPLIVTEELHSLSFETQLCQPGLVIDLETTSLPVVVISNVSQLPSGWASILWYNMLVTEPRNLSFFLNPPCAWWSQLSEVLSWQFSSVTKRGLNADQLSMLGEKLLGPNAGPDGLIPWTRFCKENINDKNFSFWPWIDTILELIKNDLLCLWNDGCIMGFISKERERALLKDQQPGTFLLRFSESSREGAITFTWVERSQNGGEPDFHAVEPYTKKELSAVTFPDIIRNYKVMAAENIPENPLKYLYPNIDKDHAFGKYYSRPKEAPEPMELDDPKRTGYIKTELISVSEVH

binding result (IRF9–IAD_(182–385)): binds
B4: STAT2_(133–315) (domain or fragment, mouse, UniProt Q9WVL2 133-315, looked up)
chain: PEAVVESQQLEIENRIQGLHVDIEFLVRSIRQLKDEQDVFSFRYTVFSLKKTSSSDPHQSQQAHVVQATANKVDRMRKEVLDISKGLVGRLTTLVDLLLPKLDEWKVQQQKSCIGAPPPVKSAAEQLEQWLTAGAKFLFHLRQLLKQLKEMSCLRYQGDMFAKGVDLRNAQVMELLQRLLQRS
